# T1: B7-H3 on surface of tumor cell (786-0, MDA-MB-231, Raji-B7-H3 cells) (human, UniProt Q5ZPR3 29-534)
# T1 construct: whole, on cells; The making of Raji-B7-H3 cells is not described; also called B7-H3 on the surface of tumor cells; human B7-H3
# T1 sequence (looked up): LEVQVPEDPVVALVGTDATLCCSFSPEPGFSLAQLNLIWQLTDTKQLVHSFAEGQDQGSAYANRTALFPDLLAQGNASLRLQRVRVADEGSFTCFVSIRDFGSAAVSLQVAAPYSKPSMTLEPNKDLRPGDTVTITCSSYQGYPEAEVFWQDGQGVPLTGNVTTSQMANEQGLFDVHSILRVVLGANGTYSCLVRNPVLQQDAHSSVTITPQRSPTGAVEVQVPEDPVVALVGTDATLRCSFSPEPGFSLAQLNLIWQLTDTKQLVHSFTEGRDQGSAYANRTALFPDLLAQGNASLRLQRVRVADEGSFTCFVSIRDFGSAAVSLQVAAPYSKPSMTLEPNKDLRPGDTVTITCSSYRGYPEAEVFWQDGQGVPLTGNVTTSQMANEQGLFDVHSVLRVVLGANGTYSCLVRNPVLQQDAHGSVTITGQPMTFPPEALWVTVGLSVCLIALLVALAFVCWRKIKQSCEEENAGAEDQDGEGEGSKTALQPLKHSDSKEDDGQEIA
# T2: human 4Ig-B7-H3-His protein (human, UniProt Q5ZPR3 29-466)
# T2 construct: also called human B7-H3 protein
# T2 sequence: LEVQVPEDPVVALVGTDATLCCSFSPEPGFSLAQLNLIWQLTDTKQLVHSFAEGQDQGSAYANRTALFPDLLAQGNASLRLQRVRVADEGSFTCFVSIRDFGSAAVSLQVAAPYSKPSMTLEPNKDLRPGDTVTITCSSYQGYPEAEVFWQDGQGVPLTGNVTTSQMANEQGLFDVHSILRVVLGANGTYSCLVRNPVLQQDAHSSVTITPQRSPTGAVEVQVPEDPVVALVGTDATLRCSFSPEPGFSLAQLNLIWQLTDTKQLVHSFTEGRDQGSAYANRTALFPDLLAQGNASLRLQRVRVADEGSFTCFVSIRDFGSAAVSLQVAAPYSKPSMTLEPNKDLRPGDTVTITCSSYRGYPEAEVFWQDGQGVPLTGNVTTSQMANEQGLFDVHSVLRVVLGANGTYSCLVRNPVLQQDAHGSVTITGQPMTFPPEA
# Tests used:
# [1] = target: T1, B7-H3 on surface of tumor cell (786-0, …); assay: FACS on MDA-MB-231 cells
# Method: The binding activity of antibodies to B7-H3 on the surface of tumor cells was analyzed by FACS. Mean fluorescence intensity (MFI) and EC₅₀ detected by FACS indicate the binding activity of the antibody to cells. After 786-0 and MDA-MB-231 cells were digested, they were resuspended in 2% FBS-PBS solution and counted. After raji-B7-H3 cells were collected, they were resuspended in 2% FBS-PBS and counted. The above cells were plated in a cell plate with 1×10⁵ cells per well. The anti-B7-H3 antibody of the present disclosure was used as the primary antibody and added to cell plates in gradient dilution starting from 20 μg/mL with a total of 8 concentrations: 20,000 ng/mL, […], 2,000 ng/mL, 400 ng/mL, 80 ng/mL, 16 ng/mL, 3.2 ng/mL, and 0.64 ng/mL respectively. The plates were incubated at 4° C. for 1 h with hBRCA84D as the positive control antibody. PE-Anti-Human IgG (Biolegend, Cat. No. 409303, 1.25 μl/well) was used as the secondary antibody, washed, and detected for the fluorescence intensity generated by the binding of the antibody to the cell surface by a flow cytometer.
# [2] = target: T2, human 4Ig-B7-H3-His protein; assay: Biacore X100 SPR, 4Ig-B7-H3-His coupled to CM5 chip, antibody injected
# Description: The humanized anti-B7-H3 antibodies prepared in Example 4 were subjected to affinity assay by Biacore. The antigen 4Ig-B7-H3-His was first coupled to the surface of a CM5 chip (GE, Cat. No. BR100012), and the active groups of the uncoupled protein were blocked with ethanolamine. After the baseline was stable, the hu39-01, hu65-13, and hBRCA84D antibodies were respectively diluted in equal proportions. The diluted antibodies of each concentration were placed on the sample injection tray of the instrument in sequence, and the program was set to inject samples respectively.
# [3] = target: T3, Cynomolgus B7-H3-His (Sino Biological, Cat. No. 90806-C08H) (cynomolgus monkey); assay: ELISA, plate coated with cynomolgus B7-H3-His, detection with anti-human IgG HRP, OD450
# T3 construct: Bought reagent; also called cynomolgus monkey B7-H3; monkey B7-H3
# Method: The binding activity of antibodies was analyzed by protein based ELISA. Cynomolgus B7-H3-His (0.5 μg/well, Sino Biological, Cat. No. 90806-C08H) was coated on 96-well ELISA plates. The anti-B7-H3 antibodies of the present disclosure was used as the primary antibody and added to the ELISA plates in 5-fold gradient dilution starting from 2 μg/mL with a total of 8 concentrations: 2,000 ng/mL, 400 ng/mL, 80 ng/mL, 16 ng/mL, 3.2 ng/mL, 0.64 ng/mL, 0.128 ng/mL, and 0.0256 ng/mL respectively. The plates were incubated at 37° C. for 2 h with AB06.12-4P as the positive control antibody. Anti-Human IgG HRP (Jackson, 109-035-003, 1:10,000) was used as the secondary antibody. Color developing solution TMB (3,3′,5,5′-tetramethylbenzidine) was added to the plate, and microplate reader (Thermo, Multiskan FC) was used to read OD450 value after termination of the reaction. EC₅₀ was generated by GraphPad.
binder,measurement,setting,value
"hBRCA84D (antibody, human IgG1, kappa, V domains shown, Humanized antibody from WO2011/109400; also called positive control antibody hBRCA84D; control antibody hBRCA84D) VH: EVQLVESGGGLVQPGGSLRLSCAASGFTFSSFGMHWVRQAPGKGLEWVAYISSDSSAIYYADTVKGRFTISRDNAKNSLYLQMNSLRDEDTAVYYCGRGRENIYYGSRLDYWGQGTTVTVSS VL: DIQLTQSPSFLSASVGDRVTITCKASQNVDTNVAWYQQKPGKAPKALIYSASYRYSGVPSRFSGSGSGTDFTLTISSLQPEDFATYYCQQYNNYPFTFGQGTKLEIKR",EC50,[1],0.384 mg/L
same,Mean fluorescence intensity (MFI),[1],35800
same,Kd,[2],0.455 nM
same,koff,[2],0.000111 s⁻¹
same,kon,[2],243000 M⁻¹ s⁻¹
same,EC50 (read off the curve),[3],~0.006 mg/L
